± gives the standard deviation of the averaged measurements.
test system: ATP; assay: switch fluorescence ratio, 500 uM ATP over buffer (Cy3 cluster intensity, sum of 5 cycles each) (fold (ratio)); higher = stronger signal-on switching upon ATP binding; sequences stand for … in TCGTCGGCAGCGTCAGATGTGTATAAGAGACAGTTTTTTTTTTTTTTTTTTTTTTTTT…TC; details: aptamer strand: ATP DNA aptamer (quencher-CACCTGGGGGAGTATTGCGGAGGAAGG + anchor), 100 nM annealed; ATP concentration: 500 uM
Outline: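 Between each of five buffer/ATP cycles, the flow-cell was stripped with NaOH and re-annealed. Each cycle imaged Cy3-labelled switching-strand clusters, annealed to 100 nM quencher-labelled ATP aptamer on a modified Illumina MiSeq flow-cell, first in selection buffer and then after 15 min with 500 uM ATP at 22 °C. The fluorescence ratio is summed target-cycle over summed buffer-cycle Cy3 intensity per cluster, averaged per switch-domain sequence, with clusters outside 100-1000 RFU excluded.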
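Also: ATP exposure 15 min at 22 °C before imaging.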

Sequence | switch fluorescence ratio
ACCCAGCATC | 1.49 ± 0.025
ACCCAGTGAA | 1.24 ± 0.016
ACCCATAGCG | 1.017 ± 0.0062
ACCCCTGGGC | 1.16 ± 0.041
ACCCGAAGGG | 0.948 ± 0.075
ACCCGAGCAT | 1.79 ± 0.12
ACCCGAGGGA | 1.05 ± 0.05
ACCCGATCTT | 1 ± 0.053
ACCCGCACTT | 1.82 ± 0.24
ACCCGGCACA | 1.21 ± 0.051
ACCCGGGATT | 1.13 ± 0.098
ACCCGTAAGA | 1.22 ± 0.093
ACCCGTACTT | 1.15 ± 0.033
ACCCTTCTGC | 1.15 ± 0.017
ACCGACGCGG | 2.55 ± 0.34
ACCGCACCAA | 1.34 ± 0.051
ACCGCATTGT | 1.96 ± 0.23
ACCGCTCAGG | 1.022 ± 0.0093
ACCGCTGGTC | 1.13 ± 0.056
ACCGCTGGTT | 0.97 ± 0.014
ACCGCTTTTT | 1.11 ± 0.024
ACCGGATGG | 1.03 ± 0.027
ACCGGGCGGC | 1.05 ± 0.033
ACCGGGGGTA | 0.991 ± 0.024
ACCGGGTGCA | 1.36 ± 0.48

Sequence | switch fluorescence ratio
ACCGGGTGGG | 1.12 ± 0.15
ACCGGGTGTA | 1.3 ± 0.086
ACCGTAGCGG | 1.12 ± 0.023
ACCGTCAGTG | 1 ± 0.015
ACCGTTGGTT | 1.02 ± 0.056
ACCGTTTTTA | 1.08 ± 0.097
ACCTAGCTTC | 1.12 ± 0.05
ACCTCTTATA | 1.05 ± 0.014
ACCTGATGTC | 1.06 ± 0.015
ACCTGGAAAA | 0.999 ± 0.048
ACCTGGATTG | 1.03 ± 0.017
ACCTGGCAAA | 1.09 ± 0.043
ACCTGGGGAT | 1.028 ± 0.0099
ACCTGGGTAC | 1.03 ± 0.055
ACCTGGTGTT | 1.23 ± 0.39
ACCTGTGATC | 1.02 ± 0.026
ACCTGTTTGT | 1.01 ± 0.017
ACCTTAAGGG | 1.01 ± 0.015
ACCTTAGGCC | 1.07 ± 0.015
ACCTTCGGGT | 1.03 ± 0.028
ACCTTGTATA | 0.971 ± 0.022
ACCTTTAAGC | 1.106 ± 0.01
ACCTTTTCTT | 1 ± 0.011
ACCTTTTGTG | 0.9903 ± 0.0046
ACCTTTTTTT | 1.17 ± 0.11

Sequence | switch fluorescence ratio
ACGAAATTGG | 1.04 ± 0.068
ACGAACAGCG | 1.153 ± 0.004
ACGAATGGTG | 1.02 ± 0.031
ACGAATTGTT | 0.9848 ± 0.0026
ACGACATTTT | 1.084 ± 0.0048
ACGACGTGGG | 1 ± 0.024
ACGAGAAGGG | 1.02 ± 0.043
ACGAGAGATT | 1.42 ± 0.48
ACGAGATTAT | 1.02 ± 0.014
ACGAGGCCGG | 0.952 ± 0.077
ACGAGGCTCA | 1.062 ± 0.0068
ACGAGGGCCA | 1.004 ± 0.0086
ACGATAGGCC | 1.03 ± 0.028
ACGATCAGGA | 1.026 ± 0.0029
ACGATGACAC | 1.289 ± 0.0018
ACGATGGGAG | 1.02 ± 0.021
ACGATTAGGG | 0.996 ± 0.08
ACGATTGTGG | 0.983 ± 0.014
ACGCAGGACA | 1.35 ± 0.031
ACGCAGGGGG | 0.989 ± 0.034
ACGCCACTGT | 1.71 ± 0.038
ACGCCATAGT | 1.25 ± 0.059
ACGCCCTCCC | 2.02 ± 1.2
ACGCCTTAGG | 1.05 ± 0.038
ACGCGATTTT | 1.35 ± 0.46

Sequence | switch fluorescence ratio
ACGCGGGGGG | 1.02 ± 0.029
ACGCGGTCGG | 1.08 ± 0.044
ACGCGTCAGC | 1.01 ± 0.021
ACGCGTGCGT | 0.988 ± 0.016
ACGCTAGCCT | 1.18 ± 0.032
ACGCTGGCGA | 1.03 ± 0.021
ACGCTTTAGT | 1.01 ± 0.036
ACGCTTTTGG | 1.03 ± 0.023
ACGGAAATTT | 1.021 ± 0.0052
ACGGAATCCT | 1.19 ± 0.018
ACGGAATGTT | 1.0819 ± 0.00046
ACGGACAATC | 1.47 ± 0.099
ACGGACAGTT | 1.13 ± 0.029
ACGGACATGG | 1.08 ± 0.017
ACGGACTGGT | 1.18 ± 0.014
ACGGACTTTG | 0.941 ± 0.063
ACGGAGAGGC | 1.14 ± 0.22
ACGGAGGATT | 1.04 ± 0.04
ACGGAGGTGG | 0.992 ± 0.033
ACGGATATTA | 1.01 ± 0.0031
ACGGATGGCT | 0.984 ± 0.023
ACGGATTGTG | 0.971 ± 0.0099
ACGGCCTAAA | 0.98 ± 0.043
ACGGCGCTGG | 1.02 ± 0.017
ACGGCGTCGC | 1.02 ± 0.026

Source: the supplement of paper PMC10126150
